Measurements as given in the nanobody polyreactivity screen of Harvey et al. (2022).

Assay: yeast display, Sf9 membrane polyspecificity reagent, FACS + sequencing; frameworks hold sequencing errors
Outline: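 Nanobodies came from a synthetic yeast display library in Saccharomyces cerevisiae BJ5465, induced with galactose for 36–48 hours and stained for 1 hour at 4 °C with 10% biotinylated, detergent-solubilized Sf9 membrane reagent. Cells were enriched on streptavidin microbeads and then FACS-sorted, with low and high (top ~1%) gates set on anti-HA fluorescence for expression and streptavidin fluorescence for reagent binding. Each polyreactivity label reflects the gate a clone came from. Genes were amplified by colony PCR, sequenced by MiSeq 2 × 250 and filtered by CDR length.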

Sequence	polyreactivity (PSR sort gate)
QVQLVESGGGLVQAGGSLRLSFAASGITFDSYAKGWYRQAPGKERELVATISRSGTTTYYADSVKGRFTISRDNAKNTVYLQMNSLKPEDTAVYYCNTLRAYWTYHFYGAVRDGYDYWGQGTQVTVSS	low polyreactivity
QVQLVESGGGLVQAGGSLRLSCAASGSTFNIYGMGWYRQAPGKERELVARISSGGSTYADSVKGRFTISRDNAKNTVYLQMNSLKPEDTAVYYCAAAAARTYRRYRYEGYYYWGQGTQVTVSS	high polyreactivity
QVQLVESGGGLVQAGGSLRLSCAASGITFYPYAMGWYRQAPGKERELVAAITGSGGRTYYADSVKGRFTISRDNAKNTVYLQMNSLKPEDTAVYYCAKVARYPDMGYWGQGTQVTVSS	high polyreactivity
QVQLVESGGGLVQAGGSLRLSCAASGRTFTTYAMGWYRQSPGKERELVAAISGSGGSTYYADSVKGRFTISRDNAKNTVYLQMNSLKPEDTAVYYCATAYYYHGGYYYPYDDYWGQGTQVTVSS	low polyreactivity
QVQHVESGGGLVQAGGSLRLSCAASGITFSYYAMGWYIQAPGKEREFVAAISWSGGSTYYADSVKGRFTISRDNAKNTVYLQMNSLKPEVTAVYYCAADRYPYGLDYWGQGTQVTVSS	high polyreactivity
QVQLVESGGGLVQAGGSLRLSCAASGRTFDKYAMGWYRQAPGKERELVAAISYDAGRTYYADSVKGRFTISRDNAKNTVYLQMNSLKPEDTAVYYCNAVRFRGFGWGQGTQVTVSS	high polyreactivity
QVQLVESGGGLVQAGGSLRISCAASGLTFDYYAMGSYRQAPGKERELVAAITSGSITYYADSVKGRFTISRDNAKNTVYLQMNSLKPEDTAVYYCAAKRTSFTARYGYWGLGTQVTVSS	high polyreactivity
QVQLVESGGGLVQAGGSLRLSCAASGAIFELNAMGWYRQAPGKERELVAAIRWRTGRTYYADSVKGRFTISRDNAKNTVYLQMNSLKPEDTAVYYCAAPVRSGVRYTLDYWGQGTQVTVSS	high polyreactivity
QVQLVESGGCLVQAGGSLRLSCAASGSTFDYYMGWYRQAPGKERELVAAITYSGGSTYYADSVKGRFTISRDNAKNSVYLQMNSLNPEDTAVYYCAKDRSTFDDFYSNYYWGQGTQVTVSS	low polyreactivity
QVQLVESGGGLVQAGGSLRLSCAASGSTFVNYVMGWYRQAPGKERELVAAISRRGTSTRYADSVKGRFTISRDNAKNTVYLQMNSLKPEDTAVYYCAATRYVGVTGYGYWGQGTQVTVSS	high polyreactivity
QVQLVESGGGLVQAGGSLRLSCAASGRIFKNNAMGWYRQAPGKERELVAAITWRSGRTYYADSVKGRFTISRDNAKNTVYLQMNSLKAEDTAVYYCAKQVFGYGIVNNGDYWGQGTQVTVSS	high polyreactivity
QVQLVESGGGLVQAGASLRLSCAASGRTLTGYAMGWYRQAPGKERELVAAITWRDSTYYADSVKGRFTISRDNAKNTVYLQMNSLKPEDTAVYYCNADNATYFVYEFNYWGQGTQVTVSS	low polyreactivity
QVQLVESGGGLVQAGGSLRLSCAASGFIFRYYAMGWYRQAPGKERELVAAISASGVSTYYADSVKGRFTISRDNAKNTVYLQMNSLKPEDTAVYYCNKVTRGGYDYWGQGSQVTVSS	high polyreactivity
QVQLVESGGGLVQAGGSLRLSCAASGRIFSRNAMGWYRQAPGKERELVAAITWRGGNTYYAHSVKGRFTISRDNAKNTVYLQMNSLKPEDTAVYYCAADYLRWAGRYFSWDYDYWGQGTQVTVSS	high polyreactivity
QVQLVESGGGLGQAGGSLRLSCAASGLIFSPYDMGWYRQAPGKERELVGAISNGDSTNYADSVKGRFTISRDNAKNTVYLQMNSLKAEDTAVYYCNAAIPSWLEYEYWGQGTQVTVSS	low polyreactivity
QVQLVESGGGLVQAGGSLRLSCAASGRTFRKYTMGWYRQAPGKEREFVAAITYSGGSTYYADSVKGRFTISRDNAKNTGYLQMNSLKPEDTAVSYCFTRGGYYLYYSYYYWGQGTQVTVSS	high polyreactivity
QVQLVESGGGLVQAGGSLRLSCAASGFIFRTYAMGWYRQAPGKERELVAAITYSAGSTYYADSVKGRFTISRDNAKNTVYLQMNSLKPEDTAVYYCNVRKTWYGYSVTGRYDYWGQGTQVTVSS	low polyreactivity
QVQLVDSRGGLVQAGGSLRLICAASGSTFGRYARGWYRPEPGTERELVAAISWRGGSTFYADSVKGRFTISRDNAKNTVYLLMISLKPEDTAVYYCAAVSYGRPRMGYWGQGTQVTVSS	high polyreactivity
QVQLVESGGGLVQAGGSLRLSCAASGITFSGNAMGWYRQAPGKERELVAAISGRGGSTYYADSVKGRFTISRDNAKNTVYLQMNSLKPEDTAVYYCAARVPSPYVATYYYWGQGTQVTVSS	high polyreactivity
QVQLVESGGGLVQAGGSLRLSCAASGSTIVRYAMGWYRQAPGKERELVAAISGGGSTSYADSVKGRFTISRDNAKNTVYLQMNSLKPEDTAVYYCAKAGYRSEFEYWGQGTQVTVSS	low polyreactivity
QVQLVESGGGLDQAGGSLRLSCAASGSIFDPYAMGWYRPAPGKEREFVAVISKGGTNTYYADSVKGRFTISRDNAKNTVYLQMNSLKPEDTAGYYCAARVDTYRAKYYYWRQGTQVTVSS	high polyreactivity
QVQLVESGGGLVQAGGSIRLSCAASGFIFFSNAMGWYRQAPGKERELVAVIDRATSTYYADSVKGRFTISRDNAKNTVYLQMNSLKPEDTAVYYCNADGEEVYDFNYFLSFKGDYWGQGTQVTVSS	low polyreactivity

Sequence	polyreactivity (PSR sort gate)
QVQLVESGGGVVQAGGSLRLSCAACGSTFRSYAMGWYRQAPGTERELVAAISSGGRTYYADSVKGRFTITRDNAKNPVYLPMNSLKPEDTAVYYCAARLYAYRWYGYAFKYEYWGHGTQVTVSS	high polyreactivity
QVQLVESGGGLVQAGGSLRLSCAASGSTFRYYGMGWYRQAPGKERELVAAISTGGRTNYADSVKGRFTISRDNAKNTVYLQMNSLKPEDTAVYYCAADFLSPAYRPSWYRFDYWGQGTQVTVSS	low polyreactivity
QVQLVESGGGLVQAGGSLRLSCAASGFIFRYYAMGWYRQAPGKERELVASIDWSGGNTYYADSVKGRFTISRDNAKNTVYLQMNSLKPEDTAVYYCNRRGMDWGQVTQVTVSS	low polyreactivity
QVQLVESGGGLFQEGGSLRVSCAASGRIFIANAMGWYRQAPGKERELVAAISFSGGSTYYADSVKGRFTISRDNAKSTVYLQLNSLKPEDTAVYFCIKVGIRYYYGYDYWGHGTQVTVSS	high polyreactivity
QVQLVESGGGLVQAGGSLRLSCAASGSIFQFSAKGWYRQAPGKERELVAGINTSGGSTYYADSVKGRFTISRDNAKNTVYLQMHSLKPEDTAVYYCMARSRYDTGPQRGYDYWGQGTQVTVSS	low polyreactivity
QVQLVESGGGLVQAGGSLRLSCAASGITFSYYAMGWYRQAPGKERELVAAISRTGTSTYYADSVKGRFTISRDNAKNTVYLQMKSLKPEDTAVYDCAAVPRHPYHDKYDYWGQGTQVTVSS	high polyreactivity
QVQLVESGGGLVQAGGSLRLSCAASGSTSWYNAMGWYRQAPGKESELVAAISKSGTSTHYADSVKGRFTISRDNAKNTVYIQMNSRKPEDTAVYYCNRVRYALRRFYGTAVGYWGQGTQVTVSS	low polyreactivity
QVQLVESGGGLVQAGGSLRLSCAASGRTLRYYAMGWYRQAPGKERELVAAITSSDRTYYADSVKGRFTISRDNAKNTVYLQMNSLKPEVTAVYYCAAYRATQFGYYYWGQGTQVTVSS	high polyreactivity
QVQLVESGGGLVQAGGSLRLSCAASGRTFARYAMGWYRQAPGKEREFVAGINWSGGGTYYADSVKGRFTISRDNAKNTVYLQMNSLKPEDTAVYYCASYTSVRPKLDYWGLGTQVTVSS	high polyreactivity
QVQLVESGGGLVQAAGSLRLSCAASGSISGYYAMGWYRQAPGKERELVASIRYTGARTYYADSVKGRFTISRDNAKNTVYLQMNSLKPEDTAVYYCAADVKRDRVWGGDYWGQGTQVTVSS	low polyreactivity
QVQLVESGGGLVQAGGSLRLSCAASGSTFVINAMGWYRQAPGKERELVAAISFSGDTTYYADSVKGRFTISRDNAKNTVYLQMNSLKPEDTAVYYCAASVTVGISKYGYWGQGTQVTVSS	high polyreactivity
QVQLVESGGGLVQAGGSLRLSCAASGSISVRNVMGWYRQAPGKERELVATIRRPGGSTSYADSVKGRFTISRDNAKNTVYLQMNSLKPEDTAVYYCAAVGYTTYRRYDYWGQGTQVTVSS	low polyreactivity
QVQLVESGGGLVQAGGSLRLSCAASGRILLTYAMGWYRQAPGKERELVAAISSDSRTYYADSVKGRFTISRDNAKNTVYLQMNSLIPEDTAVYYCVRRRYKYDYWGQGTQVTVSS	low polyreactivity
QVQLVESGGGLVQAGGSLRLSCAASGSTFSSYAMGWYRQAPGKDRELVAAISSRGGRTYYADSVKGRFTISRDNAKNTVYLQMNSLKPEDTAVYYCNAPTSALRQGKDYGYWGQGTQVTVSS	high polyreactivity
QVQLVESGGGLVQAGGSLRLTCAASGIIYYVYAMVWYRQAPGKERELVAAITSGGTTYYADSVKGRFTISRDNAKNTVYLQMNSLKPEDTAVYYCAAARGGGRTYGYWGQGTQVTVSS	high polyreactivity
QVQLVESGGGLVQAGGSLRLSCAASGSIFAINAMGWYRQAPGKERELVARISWSGGRTYYADSVKVRFTISRDNAKNTVYLQMNSLKPEDTAVYYCAKRYYKSLNRDEFDSWGQGTQGTVSS	high polyreactivity
QVQLVESGGGLVQAGGSLRLSCAASGSIFGLNAMGWYRPEPGQESALVAAISYSGGTTYYADSVKGRFTISRDNAKNSVYLQMNSLKPEDTAVYYCATRARYVGGYKYNYWGQGTQVTVSS	high polyreactivity
QVQLVESGGGLVQAGGSLRLSCAASGRIFYGNAMGWYRQAPGKERELVAAISSGTSTNYADSVKGLFTISRDNAKNTVYLQMHCLKPVDTAVYYCAAGSYSLYLYSLYFDFDYWGQGTQVTVSS	low polyreactivity
QVQLVESGGGLVQAGVSLRISCAASGFTFSRNAMGWYRQAPGKESELVAAITWSGGRSYYADSVKGRFTISGDNAKNPVYLQMNSLKPEDTAVYYCAARKYPLRSAYDYWGPGTQVTVSS	low polyreactivity
QVQLVESGGGLVQAGGSLRLSCAASGFIFSVYAMGWYRQAPGKERELVAAITESGGSTYYADSVKGRFTISRDNAKNSVYLQMNSLKPEDTAVYYCAAAIRPYEYEYWGQGTQVTVSS	low polyreactivity
QVLLLESGGGVVQAGGSHRLRCAASGRIFCTNTMGWYRQAPGKERELVAVISSSGDSTYYADSVKGRFTISRDNAKNTVYLQINSLKPEDTAVYYCAKGNNWISRLMDYWGQGTQVTVSS	low polyreactivity
